The source of these data is patent publication US20200181261A1 (Bayer, published 2020).

The target of test [1] is T1, Macaca fascicularis CEACAM6, extracellular (mature form), obtained by Factor Xa cleavage of TPP-2443 (Macaca fascicularis).
T1 construct: used biotinylated in some assays; also called APP-319; Cynomolgus CEACAM6
T1 chain: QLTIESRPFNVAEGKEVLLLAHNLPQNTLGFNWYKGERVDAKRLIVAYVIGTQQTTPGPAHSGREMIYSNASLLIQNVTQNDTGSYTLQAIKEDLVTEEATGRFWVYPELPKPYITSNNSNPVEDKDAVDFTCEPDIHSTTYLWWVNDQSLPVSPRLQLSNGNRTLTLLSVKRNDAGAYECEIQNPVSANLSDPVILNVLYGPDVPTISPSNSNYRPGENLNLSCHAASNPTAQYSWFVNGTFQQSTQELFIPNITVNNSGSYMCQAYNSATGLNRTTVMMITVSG
Briefly: ELISA, antibody captured, biotinylated antigen titrated. How it is done:
The binding characteristics of these antibodies were also determined by a binding ELISA (monovalent binding, biotinylated CEACAM proteins): A 1:440 dilution of an anti-human IgG (Sigma, 12136) in Coating buffer (Candor) was used to coat black 384-well Maxisorp plates (Nunc) for 1 hour at 37° C. After one wash with PBS/0.05% Tween-20 the plates were blocked with 100% SmartBlock (Candor) for 1 hour at 37° C. After three washes, 2 μg/ml of the relevant antibodies were added to the plate in PBS/0.05% Tween-20/10% SmartBlock. The plates were incubated for 1 hour at room temperature. After three washes dilution series of the relevant biotinylated CEACAM proteins in PBS/0.05% Tween-20/10% SmartBlock were added and the plates were incubated for one hour at room temperature. After three washes 1 μg/ml of Streptavidin-Peroxidase (Sigma, S5512) in PBS/0.05% Tween-20/10% SmartBlock was added and the plates were incubated for 30 minutes at room temperature. After three washes, the plates were developed with Amplex Red (Life Technologies) and fluorescence was read at an emission wavelength of 590 nm. GraphPad Prism 6.0 software was used to calculate EC₅₀ values using four-parameter non-linear curve fit.

The target of test [2] is T2, human CEACAM1, extracellular (mature form), R&D Systems 2244-CM (human, UniProt P13688 35-428).
T2 construct: used biotinylated in some assays; also called TPP-1437; hC1
T2 sequence: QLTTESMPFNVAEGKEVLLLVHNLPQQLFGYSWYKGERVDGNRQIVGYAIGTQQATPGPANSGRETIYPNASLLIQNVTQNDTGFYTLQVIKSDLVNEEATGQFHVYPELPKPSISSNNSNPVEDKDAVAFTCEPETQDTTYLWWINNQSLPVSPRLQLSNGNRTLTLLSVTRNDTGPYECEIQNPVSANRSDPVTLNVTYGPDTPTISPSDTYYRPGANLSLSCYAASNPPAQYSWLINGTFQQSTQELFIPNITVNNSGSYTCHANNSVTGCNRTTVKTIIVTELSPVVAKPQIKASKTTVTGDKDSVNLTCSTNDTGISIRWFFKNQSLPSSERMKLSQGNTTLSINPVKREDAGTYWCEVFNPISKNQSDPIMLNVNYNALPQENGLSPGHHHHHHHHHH
The test is described as follows: ELISA, antibody captured, biotinylated antigen titrated; binding ELISA, biotinylated CEACAM1 titrated up to 2000 ng/ml; ambiguous fit.

Test [3] concerns the target T3, Macaca fascicularis CEACAM6-Domain 1, obtained by Factor Xa cleavage of TPP-2452 (Macaca fascicularis).
T3 construct: also called APP-325; cynoC6-D1
T3 chain: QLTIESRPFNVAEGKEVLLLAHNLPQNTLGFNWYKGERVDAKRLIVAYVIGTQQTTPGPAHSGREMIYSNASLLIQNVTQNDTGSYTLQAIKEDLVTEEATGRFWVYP
Briefly: SPR, antibody captured, antigen as analyte.

The target of test [4] is T2, human CEACAM1, extracellular (mature …). Briefly: SPR, antibody captured, antigen as analyte.
The target in test [5] is T4, Human CEACAM6-Domain 1-His-I30L (I63L according to SEQ-ID NO: 179) (human).
T4 construct: the entry already carries the substitution; also called TPP-8697
T4 chain: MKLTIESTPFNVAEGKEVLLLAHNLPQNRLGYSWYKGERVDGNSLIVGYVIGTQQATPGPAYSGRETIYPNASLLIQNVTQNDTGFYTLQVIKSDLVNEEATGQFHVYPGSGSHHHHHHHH
The test is described as follows: ELISA, domain 1 protein coated. How it is done:
The proteins were expressed in E. coli, refolded and purified as described in Example 1. Comparative binding activity to domain 1 wild-type protein and the two single mutations was determined by ELISA method. 1.5 ug/ml protein solutions in PBS were coated overnight to 384 Nunc MaxiSorp plates (Sigma, P6491). Plates were washed with PBS/T and blocked with Smart block (CANDOR Bioscience GmbH, 113125). […] After washing with PBS/T, bound antibodies were detected with Anti Human IgG Fc POD (Sigma, A0170) and 10 μM Amplex Red solution (Thermo, A12222). Positive binding signals were detected via Fluorescence (Ex. 535 nm/Em. 590 nm).

B1: TPP-3705 (antibody, human IgG2, kappa, V domains shown)
VH: EVQLVESGGGLVQPGGSLRLSCAASGFTFSLYQMHWVRQAPGKGLEWVSWISFSGGNTGYADSVKGRFTISRDNSKNTLYLQMNSLRAEDTAVYYCARATGYSSPWYLDPWGQGTLVTVSS
VL: DIQMTQSPSSLSASVGDRVTITCQASHEIDNYLNWYQQKPGKAPKLLIYDAYWLKTGVPSRFSGSGSGTDFTLTISSLQPEDIATYYCQGYDDLSVTFGGGTKVDIKR
notes: also called 090E-M007-A09-Mat1-hIgG2-hIgG2Kappa
Take B1: the half-maximal effective concentration (EC50) in test [1] was 0.12 nM; in test [2], greater than 2 µg/mL.

B2: TPP-3707 (antibody, human IgG2, kappa, V domains shown)
VH: EVQLVESGGGLVQPGGSLRLSCAASGFTFSLYQMHWVRQAPGKGLEWVSWISFSGGNTGYADSVKGRFTISRDNSKNTLYLQMNSLRAEDTAVYYCARATGYSSPWYLDPWGQGTLVTVSS
VL: DIQMTQSPSSLSASVGDRVTITCQASHEIDNYLNWYQQKPGKAPKLLIYDAYWSKTGVPSRFSGSGSGTDFTLTISSLQPEDIATYYCQGYDDLSVTFGGGTKVDIKR
notes: also called 090E-M007-A09-Mat2-hIgG2-hIgG2Kappa
Turning to B2, the results for the concentration giving a half-maximal response (EC50) in test [1] and in test [2] were 0.11 nM and greater than 2 µg/mL, respectively.

B3: TPP-2971 (antibody, mouse IgG1, V domains shown)
VH: QVTLKESGPGILQPSQTLSLTCSFSGFSLSTYGIGVGWIRQPSGKDLEWLAHIWWNDNKYYNTALKSRLTISKDTSNNQVFLKIASVDTADTATYYCARISLPYFDYWGQGTTLTVSS
VL: DIVMTQSQKFMSTSVGDRVSITCKASQNVGTAVAWYQQKPGQSPKLLIYSASNRYTGVPDRFTGSGSGTDFTLTISNMQSEDLADYFCQQYSSYPLTFGAGTKLELK
notes: murine hybridoma antibody, mouse IgG1; also called 792.15H12C9
Turning to B3, in test [3], the dissociation constant (Kd) came to 30 nM. In addition, the binding result in test [4] is “no binding (tested: 200 nM)”.

B4: TPP-3187 (antibody, mouse IgG1, V domains shown)
VH: QVTLKESGPGILQPSQTLSLTCSFSGFSLTTYGIGVGWIRQPSGKGLEWLAHIWWNDNKYYNTALKSRLTISKDTSNNQVFLKIASVDTADTATYYCARISLPYFDYWGQGTTLTVSS
VL: DIVMTQSQKFMSTSVGDRVSITCKASQNVGTAVAWYQQKPGQSPKLLIYSASNRYTGVPDRFTGSGSGTDFTLTISNMQSEDLADYFCQQYNNYPLTFGAGTKLELK
notes: murine hybridoma antibody, mouse IgG1; also called 792.15C4F4
The molecule B4 returned a Kd in test [3] of 42 nM.

B5: TPP-3821 (antibody, human IgG2, kappa, V domains shown)
VH: QVTLRESGPALVKPTQTLTLTCTFSGFSLSTYGIGVGWIRQPPGKALEWLAHIWWNDNKYYSTSLKTRLTISKDTSKNQVVLTMTNMDPVDTATYYCARISLPYFDYWGQGTLVTVSS
VL: DIQLTQSPSFLSASVGDRVTITCKASQNVGTAVAWYQQKPGKAPKLLIYSASNRYTGVPSRFSGSGSGTEFTLTISSLQPEDFATYYCQQYNNYPLTFGGGTKVEIKR
notes: humanized from TPP-3187, human IgG2; also called 3187HU2-hIgG2Kappa
In the case of B5, the binding result in test [4] is recorded as “no binding (tested: 200 nM)”.

B6: TPP-3310 (antibody, human IgG2, kappa)
heavy: QVTLRESGPALVKPTQTLTLTCTFSGFSLSTYGIGVGWIRQPPGKALEWLAHIWWNDNKYYSTSLKTRLTISKDTSKNQVVLTMTNMDPVDTATYYCARISLPYFDYWGQGTTLTVSSASTKGPSVFPLAPCSRSTSESTAALGCLVKDYFPEPVTVSWNSGALTSGVHTFPAVLQSSGLYSLSSVVTVPSSNFGTQTYTCNVDHKPSNTKVDKTVERKCCVECPPCPAPPVAGPSVFLFPPKPKDTLMISRTPEVTCVVVDVSHEDPEVQFNWYVDGVEVHNAKTKPREEQFNSTFRVVSVLTVVHQDWLNGKEYKCKVSNKGLPAPIEKTISKTKGQPREPQVYTLPPSREEMTKNQVSLTCLVKGFYPSDIAVEWESNGQPENNYKTTPPMLDSDGSFFLYSKLTVDKSRWQQGNVFSCSVMHEALHNHYTQKSLSLSPG
light: DIQLTQSPSFLSASVGDRVTITCKASQNVGTAVAWYQQKPGKAPKLLIYSASNRYTGVPSRFSGSGSGTEFTLTISSLQPEDFATYYCQQYSSYPLTFGGGTKVEIKRTVAAPSVFIFPPSDEQLKSGTASVVCLLNNFYPREAKVQWKVDNALQSGNSQESVTEQDSKDSTYSLSSTLTLSKADYEKHKVYACEVTHQGLSSPVTKSFNRGEC
notes: humanized from TPP-2971, human IgG2; also called TPP-2971HU1-hIgG2Kappa
In test [1], B6 registered a concentration giving a half-maximal response (EC50) of 0.07 nM. In addition, the values for the binding result in test [5] and in test [4] were “binds” and “no binding (tested: 200 nM)”, respectively.

B7: TPP-3820 (antibody, human IgG2, kappa, V domains shown)
VH: QVTLRESGPALVKPTQTLTLTCTFSGFSLTTYGIGVGWIRQPPGKGLEWLAHIWWNDNKYYSTSLKTRLTISKDTSKNQVVLTMTNMDPVDTATYYCARISLPYFDYWGQGTLVTVSS
VL: DIQLTQSPSFLSASVGDRVTITCKASQNVGTAVAWYQQKPGKAPKLLIYSASNRYTGVPSRFSGSGSGTEFTLTISSLQPEDFATYYCQQYNNYPLTFGGGTKVEIKR
notes: humanized from TPP-3187, human IgG2; also called 3187HU1-hIgG2Kappa
B7: in test [4], the binding result is on record as “no binding (tested: 200 nM)”.

B8: TPP-3714 (antibody, human IgG2, kappa)
heavy: QVTLRESGPALVKPTQTLTLTCTFSGFSLSTYGIGVGWIRQPPGKALEWLAHIWWNDNKYYSTSLKTRLTISKDTSKNQVVLTMTNMDPVDTATYYCARISLPYFDYWGQGTLVTVSSASTKGPSVFPLAPCSRSTSESTAALGCLVKDYFPEPVTVSWNSGALTSGVHTFPAVLQSSGLYSLSSVVTVPSSNFGTQTYTCNVDHKPSNTKVDKTVERKCCVECPPCPAPPVAGPSVFLFPPKPKDTLMISRTPEVTCVVVDVSHEDPEVQFNWYVDGVEVHNAKTKPREEQFNSTFRVVSVLTVVHQDWLNGKEYKCKVSNKGLPAPIEKTISKTKGQPREPQVYTLPPSREEMTKNQVSLTCLVKGFYPSDIAVEWESNGQPENNYKTTPPMLDSDGSFFLYSKLTVDKSRWQQGNVFSCSVMHEALHNHYTQKSLSLSPG
light: DIQLTQSPSFLSASVGDRVTITCKASQNVGTAVAWYQQKPGKAPKLLIYSASNRYTGVPSRFSGSGSGTEFTLTISSLQPEDFATYYCQQYSSYPLTFGGGTKVEIKRTVAAPSVFIFPPSDEQLKSGTASVVCLLNNFYPREAKVQWKVDNALQSGNSQESVTEQDSKDSTYSLSSTLTLSKADYEKHKVYACEVTHQGLSSPVTKSFNRGEC
notes: humanized from TPP-2971, human IgG2; also called TPP-2971HU2-hIgG2Kappa
Regarding B8, in test [1], the response was half-maximal at 0.07 nM (EC50). In test [4], the binding result is reported as “no binding (tested: 200 nM)”.
